For assay [1], the target named is FLAG-tagged BRD4-L purified from insect Sf9 cells (human, UniProt O60885-1 1-1362). In words: pull-down.
The target of assay [2] is FLAG-tagged BRD4-S(a) purified from insect Sf9 cells (human, UniProt O60885-2 1-722). In words: pull-down.

B1: FLAG-tagged EN2 purified from bacteria (natural protein, UniProt P19622 1-333, looked up)
chain: MEENDPKPGEAAAAVEGQRQPESSPGGGSGGGGGSSPGEADTGRRRALMLPAVLQAPGNHQHPHRITNFFIDNILRPEFGRRKDAGTCCAGAGGGRGGGAGGEGGASGAEGGGGAGGSEQLLGSGSREPRQNPPCAPGAGGPLPAAGSDSPGDGEGGSKTLSLHGGAKKGGDPGGPLDGSLKARGLGGGDLSVSSDSDSSQAGANLGAQPMLWPAWVYCTRYSDRPSSGPRSRKPKKKNPNKEDKRPRTAFTAEQLQRLKAEFQTNRYLTEQRRQSLAQELSLNESQIKIWFQNKRAKIKKATGNKNTLAVHLMAQGLYNHSTTAKEGKSDSE
As for B1, the binding result in assay [1] and in assay [2] was “binds” in each case.

B2: FLAG-tagged EN1 purified from bacteria (natural protein, UniProt Q05925 1-392, looked up)
chain: MEEQQPEPKSQRDSALGAAAAATPGGLSLSLSPGASGSSGSGSDGDSVPVSPQPAPPSPPAAPCLPPLAHHPHLPPHPPPPPPQHLAAPAHQPQPAAQLHRTTNFFIDNILRPDFGCKKEQPPPQLLVAAAARGGAGGGGRVERDRGQTAAGRDPVHPLGTRAPGAASLLCAPDANCGPPDGSQPAAAGAGASKAGNPAAAAAAAAAAVAAAAAAAAAKPSDTGGGGSGGGAGSPGAQGTKYPEHGNPAILLMGSANGGPVVKTDSQQPLVWPAWVYCTRYSDRPSSGPRTRKLKKKKNEKEDKRPRTAFTAEQLQRLKAEFQANRYITEQRRQTLAQELSLNESQIKIWFQNKRAKIKKATGIKNGLALHLMAQGLYNHSTTTVQDKDESE
Take B2: the binding result in assay [1] and in assay [2] was “binds” throughout.
